# Reference: IntAct's records for PubMed 18022368
# B1: MAD2L1-binding protein (Homo sapiens), Q15013 (parent)
# chain: MAAPEAEVLSSAAVPDLEWYEKSEETHASQIELLETSSTQEPLNASEAFCPRDCMVPVVFPGPVSQEGCCQFTCELLKHIMYQRQQLPLPYEQLKHFYRKPSPQAEEMLKKKPRATTEVSSRKCQQALAELESVLSHLEDFFARTLVPRVLILLGGNALSPKEFYELDLSLLAPYSVDQSLSTAACLRRLFRAIFMADAFSELQAPPLMGTVVMAQGHRNCGEDWFRPKLNYRVPSRGHKLTVTLSCGRPSIRTTAWEDYIWFQAPVTFKGFRE
# Variants of: B1
# Conditions: with md2l1_human MAD2L1, Q13257
# md2l1_human MAD2L1, Q13257, sequence (Q13257 whole entry): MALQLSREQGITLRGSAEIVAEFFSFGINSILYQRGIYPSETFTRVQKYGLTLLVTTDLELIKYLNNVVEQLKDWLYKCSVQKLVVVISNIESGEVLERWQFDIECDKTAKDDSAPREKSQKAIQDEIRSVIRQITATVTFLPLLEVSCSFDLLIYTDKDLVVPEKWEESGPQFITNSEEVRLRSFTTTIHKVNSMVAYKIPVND
row,Variant,effect of a mutation on the interaction
1,MAAPEAEVLSSAAVPDLEWYEKSEETHASQIELLETSSTQEPLNASEAFCPRDCMVPVVFPGPVSQEGCCQFTCELLKHIMYQRQQLPLPYEQLKHFYRKPSPQAEEMLKKKPRATTEVSSRKCQQALAELESVLSHLEDFFARTLVPRVLILLGGNALSPKEFYELDLSLLAPYSVDQSLSTAACLRRLARAIFMADAFSELQAPPLMGTVVMAQGHRNCGEDWFRPKLNYRVPSRGHKLTVTLSCGRPSIRTTAWEDYIWFQAPVTFKGFRE [F191A],decreasing interaction
2,MAAPEAEVLSSAAVPDLEWYEKSEETHASQIELLETSSTQEPLNASEAFCPRDCMVPVVFPGPVSQEGCCQFTCELLKHIMYARQQLPLPYEQLKHFYRKPSPQAEEMLKKKPRATTEVSSRKCQQALAELESVLSHLEDFFARTLVPRVLILLGGNALSPKEFYELDLSLLAPYSVDQSLSTAACLRRLFRAIFMADAFSELQAPPLMGTVVMAQGHRNCGEDWFRPKLNYRVPSRGHKLTVTLSCGRPSIRTTAWEDYIWFQAPVTFKGFRE [Q83A],decreasing interaction
3,MAAPEAEVLSSAAVPDLEWYEKSEETHASQIELLETSSTQEPLNASEAFCPRDCMVPVVFPGPVSQEGCCQFTCELLKHIMYARQQLPLPYEQLKHFYRKPSPQAEEMLKKKPRATTEVSSRKCQQALAELESVLSHLEDFFARTLVPRVLILLGGNALSPKEFYELDLSLLAPYSVDQSLSTAACLRRLARAIFMADAFSELQAPPLMGTVVMAQGHRNCGEDWFRPKLNYRVPSRGHKLTVTLSCGRPSIRTTAWEDYIWFQAPVTFKGFRE [Q83A;F191A],decreasing interaction
